Ratio to parent data for 13 variants are collected here from PMC5663475, “SAV1 promotes Hippo kinase activation through antagonizing the PP2A phosphatase STRIPAK” (eLife, 2017).

To fix the notation:
B1: Myc-SAV1 SARAH (residues 321–383) wild type [modified: 35S-methionine labelled; 35S-methionine labelled] [human] / GST-MST2 SARAH (residues 430–491) [human] (parent complex)
chain 1: ILKWELFQLADLDTYQGMLKLLFMKELEQIVKMYEAYRQALLTELENRKQRQQWYAQQHGKNF
chain 2: KVPQDGDFDFLKNLSLEELQMRLKALDPMMEREIEELRQRYTAKRQPILDAMDAKKRRQQNF

In this assay the parent is B1. As to the kind of experiment: GST pull-down of in vitro translated 35S-labeled Myc-SAV1 SARAH, quantified; read off a plot.
chain 1 ILKWELFQLADLDTYQGMLKLLFMKALEQIVKMYEAYRQALLTELENRKQRQQWYAQQHGKNF [chain 1 E26A]: the ratio to parent was around 0.02.

Take chain 1 ILKWELFQLADLDTYQGMLKLLFMKEAEQIVKMYEAYRQALLTELENRKQRQQWYAQQHGKNF [chain 1 L27A]: the ratio to parent is around 0.7.

As to chain 1 ILKWELFQLADLDTYQGMLKLLFMKELEQIVKMYEAARQALLTELENRKQRQQWYAQQHGKNF [chain 1 Y37A], the ratio to parent is around 0.04.

As for chain 1 ILKWELFQLADLDTYQGMLKLLFMKELEQIVKMYEAYRQALATELENRKQRQQWYAQQHGKNF [chain 1 L42A], the ratio to parent is around 0.2.

Turning to chain 1 ILKWELFQLADLDAYQGMLKLLFMKELEQIVKMYEAYRQALLTELENRKQRQQWYAQQHGKNF [chain 1 T14A], the ratio to parent is around 0.9.

Regarding chain 1 ILKWELFQLADLDTYQGMLKLLFMKELEQAVKMYEAYRQALLTELENRKQRQQWYAQQHGKNF [chain 1 I30A], the ratio to parent was around 0.04.

For the variant chain 1 ILKWELFQLADLDTYQGMLKLLFMKELEQIVKMYEAYRQAALTELENRKQRQQWYAQQHGKNF [chain 1 L41A], the ratio to parent is around 0.01.

Consider chain 1 ILKWELFQLADLDTYQGMLKLLFMKELEQIAKMYEAYRQALLTELENRKQRQQWYAQQHGKNF [chain 1 V31A], for which the ratio to parent was around 0.53.

Turning to chain 1 ILKWELFQLADLDTYQGMLKLLFMKELEQIVKMYEAYRQALLTELENAKQRQQWYAQQHGKNF [chain 1 R48A], the ratio to parent is around 0.03.

chain 1 ILKWELFQLADLDTYAGMLKLLFMKELEQIVKMYEAYRQALLTELENRKQRQQWYAQQHGKNF [chain 1 Q16A]: the ratio to parent is around 0.4.

As for chain 1 ILKWELFQLADLDTYQGMLKLLFMKELEQIVKMYEAYAQALLTELENRKQRQQWYAQQHGKNF [chain 1 R38A], the ratio to parent was around 0.03.

As for chain 1 ILKWELFQLADLDTYQGMLKLLFMKELEQIVKMYEAYRQALLTEAENRKQRQQWYAQQHGKNF [chain 1 L45A], the ratio to parent was around 0.06.

Regarding chain 1 ILKWELFQLADLDTYQGMLKLLFMKELEQIVKMAEAYRQALLTELENRKQRQQWYAQQHGKNF [chain 1 Y34A], the ratio to parent is around 0.36.
